From patent US20230391872A1 (ANAPTYSBIO, published 2023)

What was measured:
[1] = biological target: T1, cynomolgus monkey BTLA ECD-his (monomeric cynomolgus monkey BTLA-his) (cynomolgus monkey, UniProt A0A2K5W7M7 31-157); test: Kinetic Exclusion Assay (KinExA 3000), solution phase, 6G3 IgG4 APE10840.04 at 100 pM, cynomolgus monkey BTLA ECD-his titrated
T1 construct: extracellular domain; also called cynomolgus monkey BTLA extracellular domain
T1 sequence: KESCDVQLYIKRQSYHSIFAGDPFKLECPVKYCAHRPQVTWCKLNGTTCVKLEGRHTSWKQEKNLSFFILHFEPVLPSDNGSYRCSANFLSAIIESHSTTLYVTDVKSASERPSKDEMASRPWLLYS
Protocol: Solution-based affinity measurements of 6G3 IgG4 (APE10840.04 (H Chain SEQ ID NO: 144, L Chain SEQ ID NO: 174)) binding to BTLA were determined on a KinExA 3000 (Sapidyne Instruments). Azlactone beads (ThermoFisher Scientific) were coated with human BTLA ECD-his (30 μg/ml) or cynomolgus monkey BTLA ECD-his (20 μg/ml) in 50 mM Na2CO3 for 2 hours at room temperature and blocked with 10 mg/ml BSA. 6G3 IgG4 APE10840.04 concentration was kept constant at 100 pM for binding in both human and cynomolgus monkey BTLA experiments. Human or cynomolgus monkey BTLA ECD-his was added at 25° C. in 2.5-fold dilutions from 1000 nM to 68 fM. Sample sets were equilibrated at 4° C. for 72 hours and brought to room temperature for 6 hours before capturing free antibody with BTLA-coupled Azlactone beads. […] Maximum and background signals were determined on samples with 6G3 only and buffer only, respectively. Data were analyzed using KinExA Pro Software 3.2.6.

[2] = biological target: T1, cynomolgus monkey BTLA ECD-his …; test: SPR (Biacore T200), antibody captured on anti-human IgG chip, monomeric BTLA-his flowed at 60, 20, 6.7 and 2.2 nM, 1:1 binding model, 25 C [lower right panel (Cyno BTLA]
Protocol: (§1) Surface plasmon resonance (SPR) analyses were carried out using a Biacore T200 (GE Healthcare Life Sciences). Kinetic constants were determined using a 1:1 binding model in the Biacore T200 Evaluation Software to calculate on- and off-rates (kₐ and kd, respectively), and dissociation constants as a measure of overall affinity (KD). Anti-human IgG (GE Healthcare Life Sciences) was immobilized on a CMS chip using EDC-activated amine coupling chemistry (420 seconds contact at a flow rate of 10 μl/min). Antibodies (APE10585.04 6G3 IgG1 and APE10840.05 6G3 IgG4), each at 0.5 μg/m1) were captured in a 60 second contact with the flow cell using a flow rate of 10 μl/min. Monomeric human BTLA-his or cynomolgus monkey BTLA-his at 60 nM, 20 nM, 6.7 nM and 2.2 nM concentrations was flowed over captured antibody (480 seconds association, 1800 seconds dissociation). Runs were at 25° C. and used buffer containing 10 mM HEPES, pH 7.6, 150 mM NaCl, 3 mM EDTA, 0.05% polysorbate 20 (HBS-EP+, pH 7.6; Teknova) for the mobile phase and all dilutions. At the end of each cycle, bound antigen was removed by regeneration with two successive exposures (60 seconds and 90 seconds) to 3 M MgCl2 (30 μl/min). Sensorgrams and binding constants corresponding to the experiment are shown in FIG. 1 (human BTLA) and FIG. 1 (cynomolgus monkey BTLA). Antibody capture levels in resonance units (RU) are listed at the right side of each panel.

[3] = biological target: T2, human BTLA on cells (stably transfected 293c18 cells; human peripheral blood T and B cells) (human, UniProt Q7Z6A9 31-289); test: flow cytometry, DyLight 650-labeled 6G3 IgG4 on human peripheral blood CD4+ T cells
T2 construct: whole, on cells; the cells are named under assay; also called cell surface BTLA; full-length human BTLA
Protocol: PBMCs were washed and incubated at 2×10⁷ cells/ml in FACS buffer (PBS, 1% BSA, 0.02% sodium azide) with Human BD Fc Block (2.5 μg/1×10⁶ cells, BD Biosciences) and LIVE/DEAD® Fixable Yellow Dead Cell Stain (30 μl, ThermoFisher Scientific) for 10 minutes on ice. Cells were washed once in FACS buffer, resuspended in FACS buffer at 1×10⁷ cells/ml and the following phenotyping antibodies added: Alexa Fluor 488-anti-human CD3E clone SK7, Brilliant Violet 421-anti-human CD4 clone OKT4, Brilliant Violet 785-anti-human CD8 clone SK1, and Brilliant Violet 570-anti-human CD20 clone 2H7 (50 μl each; all from BioLegend, Inc.). […] Samples were washed twice in FACS buffer, resuspended in 150 μl/well FACS buffer, and analyzed for fluorescence on a NovoCyte Flow Cytometer (ACEA Biosciences, Inc.). Data were analyzed using NovoExpress Software (ACEA Biosciences, Inc.). Median fluorescence intensities of anti-BTLA or isotype staining on gated CD4⁺ T cells (FIG. 4), CD8⁺ T cells (FIG. 4), or CD20⁺ B cells (FIG. 4) were graphed and curves fit with log(agonist) vs. response (three parameters) least squares fit for EC₅₀ calculation in GraphPad Prism (GraphPad Software, Inc.).

[4] = biological target: T3, human BTLA ECD-his (monomeric human BTLA-his) (human, UniProt Q7Z6A9 31-157); test: SPR, Biacore T200, antibody captured on anti-human IgG, monomeric human BTLA-his as analyte, 25 °C, 1:1 model; 6G3 IgG4 (APE10840.05) captured on the chip; human BTLA-his analyte
T3 construct: extracellular domain; also called human BTLA extracellular domain
T3 sequence (looked up): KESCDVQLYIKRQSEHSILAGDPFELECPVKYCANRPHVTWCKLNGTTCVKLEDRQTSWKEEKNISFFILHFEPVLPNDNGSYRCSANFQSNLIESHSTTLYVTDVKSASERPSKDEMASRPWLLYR
Protocol: as §1, with “Antibody capture levels in resonance units (RU) are listed at the right side of each panel.” left out

Kd [1]: ~1.66 nM
Kd [2]: 11.2 nM
koff [2]: 0.00393 s⁻¹
kon [2]: 351000 M⁻¹ s⁻¹
EC50 [3]: ~2.4 nM
Kd [4]: ~5 nM
B1: 6G3 IgG4 anti-BTLA antibody (APE10840 / APE12839 / APE13308) (antibody, V domains shown)
VH: QVQLVQSGAEVKKPGSSVKVSCKASGYVFSTSWMNWVRQAPGQGLEWMGRIYPGDADTNYVGKFKGRVTITADKSTTTAYMELSSLRSEDTAVYFCAKSGTFNFGNYRWYFDVWGKGTTVTVSS
VL: AIQLTQSPSSLSASVGDRVTITCRVSENIYSHLAWYQQKPGKAPKLLIYAATNLALGVPSRFSGSGSGTDYTLTISSLQPEDFATYYCQLFWGPPLTFGGGTKVEIKR
notes: Humanized antibody from a mouse hybridoma, tested as human IgG4 (detected with anti-human kappa); Some assays used labelled lots (DyLight 650, AF647, biotin, DyL488); also called 6G3 antibody; APE10840.03
